Article PMC11952967

Experiments:
[1] = target: MUTYH D271G (c.728A > G) (human (endogenous in HEK293T))
[2] = target: MUTYH W131* (c.309G > A) (human (endogenous in HEK293T))
[3] = target: MUTYH D271G (c.728A > G) (human (endogenous in HEK293T)); test: co-IP; MUTYH immunoprecipitated with MUTYH (C-6) antibody on Protein G Dynabeads from nuclear extract of wild-type or homozygous mutant HEK293T cells treated with 0.5 mM H2O2 for 1 h; 1 h at 4°C in PBST; blotted for APE1; APE1 signal quantified relative to MUTYH and normalised to unedited cells
[4] = target: MUTYH L111P (c.248T > C) (human (endogenous in HEK293T)); test: as above
Chain of MUTYH L111P (c.248T > C) (human (endogenous in HEK293T)) (Q9UIF7 whole entry, stated change not applied): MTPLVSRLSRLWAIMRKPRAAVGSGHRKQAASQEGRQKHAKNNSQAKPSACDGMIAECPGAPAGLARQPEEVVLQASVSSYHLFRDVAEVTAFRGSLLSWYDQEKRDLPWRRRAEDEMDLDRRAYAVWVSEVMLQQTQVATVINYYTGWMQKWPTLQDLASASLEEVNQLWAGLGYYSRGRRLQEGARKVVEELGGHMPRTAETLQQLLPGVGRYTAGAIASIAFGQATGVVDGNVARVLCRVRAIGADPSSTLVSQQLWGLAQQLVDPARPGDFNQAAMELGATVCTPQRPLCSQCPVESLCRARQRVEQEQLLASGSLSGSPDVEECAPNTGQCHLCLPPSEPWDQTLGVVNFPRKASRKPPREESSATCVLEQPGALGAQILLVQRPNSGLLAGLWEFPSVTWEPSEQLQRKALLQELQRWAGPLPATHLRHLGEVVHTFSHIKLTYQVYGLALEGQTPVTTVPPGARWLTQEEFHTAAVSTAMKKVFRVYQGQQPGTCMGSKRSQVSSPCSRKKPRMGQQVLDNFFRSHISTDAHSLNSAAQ

[5] = target: MUTYH L296L (c.802C > T) (human (endogenous in HEK293T)); test: as above
Chain of MUTYH L296L (c.802C > T) (human (endogenous in HEK293T)) (Q9UIF7 whole entry): as the sequence (Q9UIF7 whole entry, stated change not applied) above

[6] = target: MUTYH W131* (c.309G > A) (human (endogenous in HEK293T)); test: as above

Chain of MUTYH D271G (c.728A > G) (human (endogenous in HEK293T)) (Q9UIF7 whole entry, stated change not applied): as above

8-oxoG•[O] repair efficiency (average fold-change in MFI of EGFP+ cells compared to that of unedited HEK293T cells), homozygous D271G clones (fold of unedited HEK293T cells) [1]: 0.56 | 8-oxoG•[O] repair efficiency (average fold-change in MFI of EGFP+ cells compared to that of unedited HEK293T cells), homozygous W131* clones (fold of unedited HEK293T cells) [2]: 0.34 | APE1 signal relative to MUTYH in the MUTYH immunoprecipitate, normalised to wild type (relative to wild-type levels) [3]: 0.29 | APE1 signal relative to MUTYH in the MUTYH immunoprecipitate, normalised to wild type (relative to wild-type levels) [4]: 0.82 | APE1 signal relative to MUTYH in the MUTYH immunoprecipitate, normalised to wild type (relative to wild-type levels) [5]: 0.8 | APE1 signal relative to MUTYH in the MUTYH immunoprecipitate, normalised to wild type (relative to wild-type levels) [6]: 0.21
Substance: APE1 (apurinic/apyrimidinic endodeoxyribonuclease 1) (from UniProt P27695 1-318) (enzyme)
